Biological target: oxidized low-density lipoprotein (oxLDL) (oxidized with CuSO4 (residues not told))
Assay: MST; Cy5-labeled receptor (RED-NHS, lysines) at constant 20 nM, ligand in a 16-point 1:1 dilution series; exchange buffer (50 mM Hepes pH 7.5, 150 mM NaCl, 0.025% LMNG, 0.005% CHS); 25 °C, 40% MST power; apparent Kd, one-site specific binding; molar values from average molecular weights (267.5 kDa HDL, 3500 kDa oxLDL)
Settings: both partners purified

B1: human full-length cluster of differentiation 36 (CD36), glycosylated (receptor, UniProt P16671 1-472, looked up)
chain: MGCDRNCGLIAGAVIGAVLAVFGGILMPVGDLLIQKTIKKQVVLEEGTIAFKNWVKTGTEVYRQFWIFDVQNPQEVMMNSSNIQVKQRGPYTYRVRFLAKENVTQDAEDNTVSFLQPNGAIFEPSLSVGTEADNFTVLNLAVAAASHIYQNQFVQMILNSLINKSKSSMFQVRTLRELLWGYRDPFLSLVPYPVTTTVGLFYPYNNTADGVYKVFNGKDNISKVAIIDTYKGKRNLSYWESHCDMINGTDAASFPPFVEKSQVLQFFSSDICRSIYAVFESDVNLKGIPVYRFVLPSKAFASPVENPDNYCFCTEKIISKNCTSYGVLDISKCKEGRPVYISLPHFLYASPDVSEPIDGLNPNEEEHRTYLDIEPITGFTLQFAKRLQVNLLVKPSEKIQVLKNLKRNYIVPILWLNETGTIGDEKANMFRSQVTGKINLLGLIEMILLSVGVVMFVAFMISYCACRSKTIK
modifications: glycosylated (Sf9); labeled with Cy5 via lysine residues in the MST
notes: CD36, human, full length, 472 amino acids as printed; the methods print a C-terminal hemaglutinin A secretion signal and an N-terminal PreScission cut site, His10 and FLAG; In detergent micelles when purified; also called glycosylated CD36; source: Sf9 cells, baculovirus (MOI 5): on cells and in lysate; also purified (LMNG/CHS solubilisation, TALON cobalt resin, desalting)
B1 was tested, and the Kd was 343 ± 286 nM.
